Three molecules from patent US20130129722A1 can be followed below.

Usually Kd stands for the constant that tells how readily two partners part at equilibrium.

The target of assay [1] is Monkey Ang-2FD-hFc (monkey (Macca fascicularis)). Kind of assay: ELISA; 16.67 nM antibody premixed with Ang-2FD-hFc, binding to coated hTie-2-mFc.
The target of assay [2] is Human Ang-2FD-hFc (human). The description is as above.
The target in assay [3] is Mouse Ang-2FD-hFc (mouse (Mus musculus)). The description is as above.
Assay [4] addresses Dimeric Mouse Ang-2FD conjugated to human IgG1 (mouse (Mus musculus)). The experiment in a line: SPR, human IgG1 antibody captured.
The target in assay [5] is Dimeric Monkey Ang-2FD conjugated to human IgG1 (monkey (Macca fascicularis)). Kind of assay: SPR, human IgG1 antibody captured.
The target of assay [6] is Dimeric Human Ang-2FD conjugated to human IgG1 (human). Kind of assay: SPR, human IgG1 antibody captured. For orientation: In SPR one partner is held on a chip, and binding of the other changes the refractive index at the surface.
Dimeric Human Ang-2FD conjugated to human IgG1 (human), sequence (chain, as listed by the source limits assumed): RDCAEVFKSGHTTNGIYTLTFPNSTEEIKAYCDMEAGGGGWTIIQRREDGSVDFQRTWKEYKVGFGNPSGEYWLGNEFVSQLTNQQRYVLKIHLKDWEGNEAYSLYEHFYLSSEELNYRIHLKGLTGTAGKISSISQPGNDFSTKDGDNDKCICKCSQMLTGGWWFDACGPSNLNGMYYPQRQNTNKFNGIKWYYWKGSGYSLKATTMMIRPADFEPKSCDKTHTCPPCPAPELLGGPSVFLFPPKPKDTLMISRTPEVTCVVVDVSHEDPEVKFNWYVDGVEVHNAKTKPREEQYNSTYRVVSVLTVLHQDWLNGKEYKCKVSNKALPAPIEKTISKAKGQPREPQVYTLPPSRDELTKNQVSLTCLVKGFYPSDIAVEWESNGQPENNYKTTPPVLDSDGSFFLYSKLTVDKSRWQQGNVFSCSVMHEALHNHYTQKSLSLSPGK

Dimeric Mouse Ang-2FD conjugated to human IgG1 (mouse (Mus musculus)), sequence (chain, as listed by the source limits assumed): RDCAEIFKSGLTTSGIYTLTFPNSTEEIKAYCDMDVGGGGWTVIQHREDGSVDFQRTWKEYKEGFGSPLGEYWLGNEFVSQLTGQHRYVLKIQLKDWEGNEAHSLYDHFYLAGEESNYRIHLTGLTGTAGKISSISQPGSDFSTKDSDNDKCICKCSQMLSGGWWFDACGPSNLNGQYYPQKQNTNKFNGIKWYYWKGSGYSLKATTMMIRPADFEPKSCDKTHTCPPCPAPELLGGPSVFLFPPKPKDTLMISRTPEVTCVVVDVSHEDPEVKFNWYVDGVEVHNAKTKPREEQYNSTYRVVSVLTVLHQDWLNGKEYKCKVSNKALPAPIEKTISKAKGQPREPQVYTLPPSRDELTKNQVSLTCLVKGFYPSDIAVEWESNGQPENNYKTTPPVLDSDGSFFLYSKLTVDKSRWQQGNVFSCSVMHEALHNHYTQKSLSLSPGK
Dimeric Monkey Ang-2FD conjugated to human IgG1 (monkey (Macca fascicularis)), sequence (chain, as listed by the source limits assumed): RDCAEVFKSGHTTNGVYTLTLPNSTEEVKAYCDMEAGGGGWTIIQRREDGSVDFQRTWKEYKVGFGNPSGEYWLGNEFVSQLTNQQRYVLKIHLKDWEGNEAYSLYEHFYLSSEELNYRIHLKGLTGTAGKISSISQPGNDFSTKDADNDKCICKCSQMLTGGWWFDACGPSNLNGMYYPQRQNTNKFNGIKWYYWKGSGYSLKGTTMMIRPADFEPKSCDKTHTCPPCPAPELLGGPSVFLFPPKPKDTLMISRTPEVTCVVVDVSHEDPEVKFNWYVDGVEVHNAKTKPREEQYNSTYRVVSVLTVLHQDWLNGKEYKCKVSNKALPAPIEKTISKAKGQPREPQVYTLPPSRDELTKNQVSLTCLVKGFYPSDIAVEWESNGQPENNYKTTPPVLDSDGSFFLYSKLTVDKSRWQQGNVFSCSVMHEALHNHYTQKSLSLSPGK

With Control I (Ab) (antibody), the values for the Percent Blocking of Ang-2FD Binding to Tie-2 in assay [1], in assay [2] and in assay [3] were 98.5%, 97.3% and 82.2%, respectively.

B1: H1H693P (antibody, human IgG1, V domains shown)
VH: EVQLVESGGGLVQPGESLRLSCAASGFTFSSYAMSWVRQGPGKGLEWVSSISGSGGTTYYADSVEGRFTISRDNSKNTLYLHMNSLRAEDTAVYYCAKDFLDYSTYLAFDLWGQGTMVTVSS
VL: DIQMTQSPSSVSASVGDRVTITCRASQGISSWLAWYQQKPGKAPKLLIYAASSLQSGVPSRFSGSGSGTDFTLTISSLQPEDFATYYCQQANSFPRTFGQGTKVEIK
On to B1, for which the Percent Blocking of Ang-2FD Binding to Tie-2 is 73.9% in assay [2] and 63.6% in assay [3]. Besides, the Kd in assay [4] was determined as 446 pM; in assay [5], 1170 pM; in assay [6] it was 500 pM. Besides, the T1/2 stood at 1.06 h in assay [4], 0.293 h in assay [5] and 0.618 h in assay [6].

B2: H1H724N (antibody, V domains shown)
VH: QVQLVESGGGVVQPGRSLRLSCAASGFTLSNYGMHWVRQAPGKGLEWVAVIWHDGSNTYYADSVKGRFTISRDNSKNTLYLQMNSLRAEDTAVYYCTREGLDFWSGYYPNWFDPWGQGTLVTVSS
VL: DIQMTQSPSSLSASVGDRVTITCRASQGIRNDLGWYQQKPGKAPKRLIYAASNLQGGVPSRFSGSGSGTEFTLTISSLQPEDFAAYYCLQHNIYPLTFGGGTKVEIK
In the case of B2, the Percent Blocking of Ang-2FD Binding to Tie-2 in assay [1] is 96.6%; in assay [2] it was 96.6%; in assay [3], 97.1%. Further, the Kd in assay [4] was found to be 185 pM; in assay [5], 239 pM; in assay [6], 115 pM. Further, the T1/2 in assay [4] was 1.4 h; in assay [5], 2.88 h; in assay [6] it was 1.78 h.
